For assay [1], the target named is c-Jun (unmodified). Briefly: thermal melting curve, mixture (FIG. 4).
Assay [2] has as its target bHLH MAX (unmodified Max). Nature of the assay: homodimer, study of FIG. 9 (method not given).
The target of assay [3] is c-Myc bHLH protein (murine) (UniProt P01108). Nature of the assay: heterodimer with c-Myc, study of FIG. 9 (method not given).
Assay [4] deals with c-Jun (unmodified). Briefly: from thermal melts, Kd at 37 °C (FIG. 4).
Target sequence in this assay (chain, from a related filing, as listed by the source): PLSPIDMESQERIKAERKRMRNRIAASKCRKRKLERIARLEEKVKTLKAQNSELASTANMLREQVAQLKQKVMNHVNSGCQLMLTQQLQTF

This is an account of results in patent US20030027314A1.

Chain of c-Fos (unmodified) (P01100 other isoform, or with tags, fused parts or gaps limits assumed): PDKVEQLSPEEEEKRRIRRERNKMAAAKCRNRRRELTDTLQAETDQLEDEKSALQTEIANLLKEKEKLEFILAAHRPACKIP
Chain of bHLH MAX (unmodified Max) (P61244 22-113): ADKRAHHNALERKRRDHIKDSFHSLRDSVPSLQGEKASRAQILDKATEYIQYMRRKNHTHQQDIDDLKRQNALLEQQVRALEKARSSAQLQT

What is called Tm is the temperature at which the thermal transition is half complete. For “0heptad-Fos (c-Fos with the basic region deleted)”, in the assay with c-Jun (unmodified) [1], the Tm was found to be 53 °C. As a reminder, the Kd is the free concentration of one partner at which half of the binding sites on the other are occupied at equilibrium, for simple one-to-one binding. Lower therefore signals tighter binding. For the substance bHLH MAX (unmodified Max), the Kd in assay [2] turned out to be 6000 nM; in assay [3], 30 nM.

Consider “c-Fos (unmodified) (from UniProt P01100 128-207)”, for which the equilibrium dissociation constant (Kd) with c-Jun (unmodified) [4] amounted to 200 nM. For the same substance, in the assay with c-Jun (unmodified) [1], the melting temperature (Tm) is 50 °C.
